From US20090117640

Sequence of hGH mutant Q141N, P01241 (P01241 27-217 Q167N): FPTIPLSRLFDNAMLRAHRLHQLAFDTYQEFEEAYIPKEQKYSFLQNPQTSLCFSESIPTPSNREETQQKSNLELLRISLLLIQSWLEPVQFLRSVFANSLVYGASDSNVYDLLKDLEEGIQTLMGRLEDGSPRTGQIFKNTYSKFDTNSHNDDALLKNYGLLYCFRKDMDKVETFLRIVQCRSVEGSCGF
Sequence of hGH mutant Q40N, P01241 (P01241 27-217 Q66N): as the sequence (P01241 27-217 Q167N) above, with Q40N, N141Q counted along it

Protein | HPLC peak area of product-Q141 (hGH mutant Q40N, P01241) | Q40N (remaining substrate, normalized to 100) (normalized peak area (sum 100)) (hGH mutant Q40N, P01241) | product-Q141 (normalized to 100) (normalized peak area (sum 100)) (hGH mutant Q40N, P01241) | HPLC peak area of product-Q40 (hGH mutant Q141N, P01241) | Q141N (remaining substrate, normalized to 100) (normalized peak area (sum 100)) (hGH mutant Q141N, P01241) | product-Q40 (normalized to 100) (normalized peak area (sum 100)) (hGH mutant Q141N, P01241)
TGase from S. mobaraense (wild type) (protein) DSDDRVTPPAEPLDRMPDPYRPSYGRAETVVNNYIRKWQQVYSHRDGRKQQMTEEQREWLSYGCVGVTWVNSGQYPTNRLAFASFDEDRFKNELKNGRPRSGETRAEFEGRVAKESFDEEKGFQRAREVASVMNRALENAHDESAYLDNLKKELANGNDALRNEDARSPFYSALRNTPSFKERNGGNHDPSRMKAVIYSKHFWSGQDRSSSADKRKYGDPDAFRPAPGTGLVDMSRDRNIPRSPTSPGEGFVNFDYGWFGAQTEADADKTVWTHGNHYHAPNGSLGAMHVYESKFRNWSEGYSDFDRGAYVITFIPKSWNTAPDKVKQGWP | The first peak (26.9 min, area 1283) is product-Q141 | 29 | 71 | The first peak (19.5 min, area 296) is product-Q40 | 81 | 19
TGase from Streptoverticillium ladakanum (protein) DSDERVTPPAEPLDRMPDPYRPSYGRAETIVNNYIRKWQQVYSHRDGRKQQMTEEQREWLSYGCVGVTWVNSGQYPTNRLAFAFFDEDKYKNELKNGRPRSGETRAEFEGRVAKDSFDEAKGFQRARDVASVMNKALENAHDEGAYLDNLKKELANGNDALRNEDARSPFYSALRNTPSFKDRNGGNHDPSKMKAVIYSKHFWSGQDRSGSSDKRKYGDPEAFRPDRGTGLVDMSRDRNIPRSPTSPGESFVNFDYGWFGAQTEADADKTVWTHGNHYHAPNGSLGAMHVYESKFRNWSDGYSDFDRGAYVVTFVPKSWNTAPDKVKQGWP | The first peak (26.5 min, area 1238) is product-Q141 | 23 | 77 | The first peak (19.2 min, area 127) is product-Q40 | 90 | 10
